Values of other authors as cited in article PMC12525728, “Safety, Pharmacokinetics, Translational and Molecular Mechanistic Insights on the Prostate Cancer Recurrence Suppressor Pseurotin A” (Molecules, 2025).
Where two headings read alike, the source gives them in different places.

Parameters: method as in PMID 39441027
Conditions: cited from earlier work; for relative % reduction for LDL-C: propensity score matching analysis

B1: evolocumab (antibody, chains of the INN, looked up, V domains shown)
VH: EVQLVQSGAEVKKPGASVKVSCKASGYTLTSYGISWVRQAPGQGLEWMGWVSFYNGNTNYAQKLQGRGTMTTDPSTSTAYMELRSLRSDDTAVYYCARGYGMDVWGQGTTVTVSS
VL: ESALTQPASVSGSPGQSITISCTGTSSDVGGYNSVSWYQQHPGKAPKLMIYEVSNRPSGVSNRFSGSKSGNTASLTISGLQAEDEADYYCNSYTSTSMVFGGGTKLTVL
notes: FDA-approved marketed humanized monoclonal antibody that interferes with the PCSK9-LDLR PPI
total cholesterol reduction (clinical trials, after 8 dosing weeks): −26.5%
relative % reduction for LDL-C (females): −42.7%
relative % reduction for LDL-C (males): −54.4%
